Paper PMC7565926, “Oncogenic Orphan Nuclear Receptor NR4A3 Interacts and Cooperates with MYB in Acinic Cell Carcinoma” (Cancers, 2020)

Biological target: HA-tagged NR4A3 (UniProt Q92570 1-626)
Assay: cell-based or functional assay

Chain of HA-tagged NR4A3 (Q92570 whole entry): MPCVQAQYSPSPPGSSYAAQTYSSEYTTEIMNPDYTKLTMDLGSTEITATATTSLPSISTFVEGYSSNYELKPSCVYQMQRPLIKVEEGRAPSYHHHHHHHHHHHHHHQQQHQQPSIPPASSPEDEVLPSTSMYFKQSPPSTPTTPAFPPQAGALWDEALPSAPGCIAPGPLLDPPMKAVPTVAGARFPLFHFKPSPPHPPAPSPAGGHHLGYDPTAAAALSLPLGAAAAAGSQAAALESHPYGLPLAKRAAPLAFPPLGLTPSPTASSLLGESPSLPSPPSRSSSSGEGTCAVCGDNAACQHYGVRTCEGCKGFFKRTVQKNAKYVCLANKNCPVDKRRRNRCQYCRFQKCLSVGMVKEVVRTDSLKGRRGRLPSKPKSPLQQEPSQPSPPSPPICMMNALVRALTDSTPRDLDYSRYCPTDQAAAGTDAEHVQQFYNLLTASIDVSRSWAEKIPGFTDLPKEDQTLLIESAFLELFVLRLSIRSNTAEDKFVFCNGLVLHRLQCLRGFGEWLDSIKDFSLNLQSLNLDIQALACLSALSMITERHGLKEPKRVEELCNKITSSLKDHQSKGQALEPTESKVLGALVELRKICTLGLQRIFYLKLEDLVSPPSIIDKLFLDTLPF

activation of the NurRE luciferase reporter in HeLa cells on co-expression of full-length Myb with NR4A3 (NR4A3 by itself 6-fold): 27 fold
B1: Myb (natural protein)
chain: not shown
